Laboratory results published in patent US20090180995A1, “NOVEL ANTICOAGULANT POLYPEPTIDES AND COMPLEX” (National University of Singapore, priority 2005, published 2009).

B1: hemextin A (protein)
chain: LKCKNKLVPFLSKTCPEGKNLCYKMTMLKMPKIPIKRGCTDACPKSSLLVKVVCCNKDKCN
B2: hemextin B (protein)
chain: LKCKNKVVPFLKCKNKVVPFLCYKMTLKKVPKIPIKRGCTDACPKSSLLVNVMCCKTDKCN
B3: hemextin AB complex: synergistic 1:1 tetrameric complex of hemextin A and hemextin B, reconstituted from equimolar proteins (protein)
chain 1: B1 chain
chain 2: B2 chain

How the values were obtained:
[1] = test system: plasma; assay: Stypven time; type: biochemical; settings: human plasma, RVV
Experimental: (§1) Anticoagulant activity—The anticoagulant activities of H. haemachatus venom and its fractions was determined by four coagulation tests using a BBL fibrometer: • 1. Recalcification time: The recalcification times were determined according to the method of Langdell et al. (25). 50 mM Tris-HCl buffer (pH 7.4) (100 μl), plasma (100 μl) and various concentrations of venom or its fraction (50 μl) were preincubated for 2 min at 37° C. Clotting was initiated by the addition of 50 μl of 50 mM CaCl2. • 2. Prothrombin time: The prothrombin times were measured according to the method of Quick (26). […] Clotting was initiated by the addition of thromboplastin with calcium reagent (150 μl) which can be purchased from Sigma (St. Louis, Mo., USA). • For studying the role of electrostatic interactions, the anticoagulant activity of a specific concentration of hemextin A (4.4 μM), hemextin B (4.4 μM) and hemextin AB complex (0.11 μM) was monitored in 50 mM Tris-HCl (pH 7.4) containing various concentrations of NaCl (35 mM to 150 mM). • For studying the role of hydrophobic interactions, the anticoagulant activity of a specific concentration of hemextin A (4.4 μM), hemextin B (4.4 μM) and hemextin AB complex (0.11 μM) was monitored in 50 mM Tris-HCl (pH 7.4) containing various concentrations of glycerol (125 mM to 250 mM). • 2. […] Thrombin time: Thrombin time was determined according to the method of Jim (28). […]

[2] = test system: plasma; assay: Thrombin time; type: biochemical; settings: human plasma, thrombin reagent
Experimental: as §1

[3] = molecular target: T1, FVIIa-sTF (Homo sapiens, UniProt P08709); assay: FVIIa-sTF amidolytic activity; type: biochemical; settings: FVIIa-sTF (30 nM)/S-2288
T1 construct: made in house; host or cells: Saccharomyces cerevisiae (sTF); human plasma (FVIIa)
T1 sequence (P08709 61-212 limits assumed): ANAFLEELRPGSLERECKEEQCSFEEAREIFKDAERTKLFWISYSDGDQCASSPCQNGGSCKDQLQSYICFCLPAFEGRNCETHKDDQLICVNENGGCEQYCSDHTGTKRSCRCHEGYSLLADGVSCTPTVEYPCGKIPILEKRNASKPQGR
T1 sequence (P08709 213-466 limits assumed): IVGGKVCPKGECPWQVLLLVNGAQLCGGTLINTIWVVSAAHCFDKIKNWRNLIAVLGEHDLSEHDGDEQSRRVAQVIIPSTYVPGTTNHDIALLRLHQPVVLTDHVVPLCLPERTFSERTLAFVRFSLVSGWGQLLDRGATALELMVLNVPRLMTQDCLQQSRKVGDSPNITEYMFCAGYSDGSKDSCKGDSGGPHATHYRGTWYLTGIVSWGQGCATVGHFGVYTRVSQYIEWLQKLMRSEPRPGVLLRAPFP
T1 sequence (P13726 33-251 partner limits assumed): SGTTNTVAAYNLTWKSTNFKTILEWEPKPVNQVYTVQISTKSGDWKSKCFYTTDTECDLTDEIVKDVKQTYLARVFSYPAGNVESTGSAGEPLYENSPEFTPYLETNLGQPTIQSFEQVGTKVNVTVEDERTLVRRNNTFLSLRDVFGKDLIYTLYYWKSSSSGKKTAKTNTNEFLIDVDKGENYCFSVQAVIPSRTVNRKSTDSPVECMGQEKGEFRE
Experimental: Serine protease specificity—The selectivity profile of anticoagulant proteins and their complex was examined against 12 serine proteases—procoagulant serine proteases (FIXa, FXa, FXIa, FXIIa, plasma kallikrein and thrombin), anticoagulant serine protease (APC), fibrinolytic serine proteases (urokinase, t-PA and plasmin) and classical serine proteases (trypsin and chymotrypsin). Various concentrations of purified hemextin A/hemextin B and reconstituted hemextin AB complex were preincubated with each of the enzymes (Table 1) for a period of five minutes at a temperature of 37° C., followed by the addition of appropriate chromogenic substrate.
For studies with FXIa, kallikrein and urokinase, the appropriate substrates were determined prior to their screening against the inhibitors. For FXIa, the Vmax for the amidolytic activity corresponding to the chromogenic substrates S-2266, S-2302 and S-2366 was determined. S-2302 was the substrate with the highest Vmax and thus was used in the screening studies. Similar studies with kallikrein and urokinase were carried out with substrates S-2266, S-2302 and S-2288 for kallikrein and S-2444 and S-2484 for urokinase. […] The kinetic rate of substrate hydrolysis (mOD/min) was measured over 5 min.

[4] = Size exclusion chromatography of hemextin AB complex in different buffers; type: physicochemical
Experimental: Size exclusion chromatography (SEC) studies—All SEC experiments were carried out at room temperature on a pre-packed Superdex 75 gel filtration column (1.6×60 cm) using a ÄKTA Purifier system (Amersham Biosciences, Uppsala, Sweden). The column was eluted with 50 mM Tris-HCl buffer (pH 7.4) or the specified elution buffer, at a flow rate of 1 ml/min. The sample volume applied to the column was 4 ml. The column was calibrated using ovomucoid (28 kD) ribonuclease (15.6 KD), cytochrome C (12 KD), apoprotinin (7 KD) and pelovaterin (4 KD) (20) as molecular weight markers. The void volume was determined by running Blue Dextran. The column was equilibrated with at least two bed volumes of the elution buffer prior to each run. Electrostatic contributions in the hemextin AB complex formation were studied by monitoring its elution in 50 mM Tris-HCl buffer (pH 7.4) of different concentrations of NaCl (75 mM and 150 mM). Hydrophobic contributions for the complex formation were determined by recording its elution in 50 mM Tris-HCl buffer (pH 7.4). In both studies, the column was first equilibrated with the desired buffer prior to the application of the reconstituted hemextin AB complex in the respective buffer to the column. Elution of protein was monitored by absorbance at 280 nm.

Row | Molecule | clotting time, Stypven time [1] | clotting time, thrombin time [2] | inhibition of FVIIa-sTF amidolytic activity [3] | SEC elution of the complex, 75 mM NaCl ([4]; 50 mM Tris-HCl (pH 7.4), 75 mM NaCl) | SEC elution of the complex, 150 mM NaCl ([4]; 50 mM Tris-HCl (pH 7.4), NaCl 150 mM) | SEC elution of the complex, high glycerol concentration ([4]; Superdex 75, buffers containing glycerol)
1 | B1 | did not prolong | did not prolong | potent inhibitory activity | – | – | –
2 | B2 | did not prolong clotting times | did not prolong clotting times | – | – | – | –
3 | B3 | – | – | potent inhibitory activity | the tetramer starts breaking down to dimer | eluted mostly as a dimer and monomer | the tetramer breaks down to dimer and monomers
